In patent US20100325744A1 (Genmab, published 2010):

Tests used:
human C1q (Quidel) = biological target: T1, human C1q (Quidel) (human, UniProt P02745 23-245; P02746 28-253; P02747 29-245); test: ELISA, antibody coated, C1q detected with rabbit anti-human C1q
T1 construct: Bought (Quidel, lot 900848); also called first component of the classical complement cascade
Method: In short, microtiter ELISA plates (Greiner, Germany) were coated overnight at RT with the test antibodies serially diluted from 10 μg/ml to 0.06 μg/ml in PBS. Plates were emptied and wells were blocked with 200 μl ELISA-diluent per well (0.1 M NaPO₄, 0.1 M NaCl, 0.1% gelatin and 0.05% Tween-20), at RT for 30 minutes. […] After washing the plates (3×) with PBST, wells were incubated with HRP-conjugated swine anti-rabbit IgG-Fc (DAKO, P0300, lot #069) diluted in ELISA diluent (1:2500, 100 μl/well, RT, 1 hour). Thereafter, plates were washed thrice and assays were developed with freshly prepared 1 mg/ml ABTS solution (ABTS: 2,2′-azino-bis[3-ethylbenzthiazoline-6-sulfonic acid]); 2 tablets of 5 mg in 10 ml ABTS buffer, Boehringer Mannheim, Ingelheim, Germany) at RT in the dark for 30 minutes.

[1] = biological target: the molecule itself; test: self-association; gel filtration on Superdex 200 in PBS, fractions read by Bet v 1 binding test
Method: Samples (100 μl) were applied to a Superdex 200 HR 10/30 column (Amersham Biosciences, Uppsala, Sweden), which was connected to a HPLC system (ÄKTA explorer) from Amersham Biosciences, Uppsala, Sweden. The column was first equilibrated in PBS. Fractions of 250 μl were collected, in which Bet v 1 specific IgG was measured using the antigen binding assay.
To test the antigen binding of the Bet v 1 specific antibodies, a sample of diluted antibody was incubated overnight at room temperature with 0.75 mg Protein-G sepharose (Amersham Biosciences, Uppsala, Sweden) in 750 μl PBS/AT (PBS supplemented with 0.3% BSA, 0.1% Tween-20, 0.05% NaN3) together with 50 μl diluted ¹²⁵I-labelled Bet v 1 or ¹²⁵I-labelled Fel d 1. […] After washing the Sepharose suspension with PBS-T (PBS supplemented with 0.1% Tween-20), the bound radioactivity was measured. The results were expressed as the amount of radioactivity relative to the amount added.

T1 sequence (P02745 23-245 limits assumed, chain 1 of 3): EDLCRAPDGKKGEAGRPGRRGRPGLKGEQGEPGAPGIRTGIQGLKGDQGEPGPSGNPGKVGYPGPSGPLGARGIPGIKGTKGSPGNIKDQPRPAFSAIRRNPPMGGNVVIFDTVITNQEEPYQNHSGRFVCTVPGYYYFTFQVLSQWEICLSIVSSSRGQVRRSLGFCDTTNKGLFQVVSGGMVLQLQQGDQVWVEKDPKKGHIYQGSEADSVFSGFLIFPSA
T1 sequence (P02746 28-253 limits assumed, chain 2 of 3): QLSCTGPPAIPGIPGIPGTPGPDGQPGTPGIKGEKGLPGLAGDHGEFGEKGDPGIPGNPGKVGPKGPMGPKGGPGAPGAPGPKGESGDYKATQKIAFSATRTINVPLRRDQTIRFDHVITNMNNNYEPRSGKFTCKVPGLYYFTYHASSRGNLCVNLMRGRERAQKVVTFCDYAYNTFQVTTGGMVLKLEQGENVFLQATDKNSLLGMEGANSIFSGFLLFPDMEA
T1 sequence (P02747 29-245 limits assumed, chain 3 of 3): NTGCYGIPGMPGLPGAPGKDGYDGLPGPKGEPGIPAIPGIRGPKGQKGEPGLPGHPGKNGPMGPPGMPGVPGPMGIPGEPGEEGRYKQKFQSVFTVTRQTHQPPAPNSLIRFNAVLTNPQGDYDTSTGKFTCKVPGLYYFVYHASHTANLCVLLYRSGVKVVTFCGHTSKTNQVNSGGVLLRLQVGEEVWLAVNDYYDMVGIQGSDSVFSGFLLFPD

Row | binding result (human C1q (Quidel)) | Binder | binding result [1]
1 | no binding | 7D8-IgG4 (antibody, Produced from pTomG47D8 and pConK7D8; also called IgG4 anti-CD20; not shown: human kappa light chain constant region, allotype km3 (vector pConKappa0.4, Lonza)) heavy: not shown light: EIVLTQSPATLSLSPGERATLSCRASQSVSSYLAWYQQKPGQAPRLLIYDASNRATGIPARFSGSGSGTDFTLTISSLEPEDFAVYYCQQRSNWPITFGQGTRLEIK | –
2 | no binding | 7D8-HG (antibody, Half-molecule of one heavy and one light chain; in PBS without other IgG it is reported to form a non-covalent dimer; also called hingeless IgG4 anti-CD20; IgG4 HG; not shown: human kappa light chain constant region, allotype km3 (vector pConKappa0.4, Lonza)) heavy: EVQLVESGGGLVQPDRSLRLSCAASGFTFHDYAMHWVRQAPGKGLEWVSTISWNSGTIGYADSVKGRFTISRDNAKNSLYLQMNSLRAEDTALYYCAKDIQYGNYYYGMDVWGQGTTVTVSSASTKGPSVFPLAPCSRSTSESTAALGCLVKDYFPEPVTVSWNSGALTSGVHTFPAVLQSSGLYSLSSVVTVPSSSLGTKTYTCNVDHKPSNTKVDKRVAPEFLGGPSVFLFPPKPKDTLMISRTPEVTCVVVDVSQEDPEVQFNWYVDGVEVHNAKTKPREEQFNSTYRVVSVLTVLHQDWLNGKEYKCKVSNKGLPSSIEKTISKAKGQPREPQVYTLPPSQEEMTKNQVSLTCLVKGFYPSDIAVEWESNGQPENNYKTTPPVLDSDGSFFLYSRLTVDKSRWQEGNVFSCSVMHEALHNHYTQKSLSLSLGK light: EIVLTQSPATLSLSPGERATLSCRASQSVSSYLAWYQQKPGQAPRLLIYDASNRATGIPARFSGSGSGTDFTLTISSLEPEDFAVYYCQQRSNWPITFGQGTRLEIK | –
3 | – | Betv1-HG (antibody, V domains shown, Half-molecule of one heavy and one light chain; also called hingeless IgG4 anti-Bet v 1; hingeless rIgG4 Betv1-HG; not shown: human kappa light chain constant region, allotype km3 (vector pConKappa0.4, Lonza)) VH: EVQLQQSGAELVKPGASVKLSCTASGFNIKDTYIHWVKQRPEQGLEWVGRIDPATGNTRYDPKFQGKATITADTSSNTAYLQLSSLTSEDTAVYYCASFRPGYALDYWGQGTSVTVSS VL: DIVMTQSHKFMSTSVGDRVSFTCKASQDVFTAVAWYQQKPGQSPKLLIYWASTRRTGVPDRFTGSGSGTDYTLTISSVQAEDLALYYCQQHFSTPPTFGGGTKLEIK | no binding
